Reference: paper PMC6135609, “Poly(ADP-ribose) polymerase 1 searches DNA via a ‘monkey bar’ mechanism”

What was measured:
Conditions in all cases: protein: recombinant; (Ni-NTA; pET28a); blunt
[1] = molecular target: PARP1 dWGR (human, UniProt P09874 1-517+=ALAGSGSGSGSGSGLALLLAGSGSGSGSGAAL+655-1014, internal_change); assay: stopped-flow fluorescence anisotropy; k1 similar to WT; Scheme 2 dissociation, no ternary complex; 50 mM Tris-HCl pH 7.5, 50 mM NaCl, 1 mM MgCl2, 0.1 mM EDTA, 0.01% IGEPAL, 20 C
Sequence of PARP1 dWGR (P09874 other isoform, or with tags, fused parts or gaps): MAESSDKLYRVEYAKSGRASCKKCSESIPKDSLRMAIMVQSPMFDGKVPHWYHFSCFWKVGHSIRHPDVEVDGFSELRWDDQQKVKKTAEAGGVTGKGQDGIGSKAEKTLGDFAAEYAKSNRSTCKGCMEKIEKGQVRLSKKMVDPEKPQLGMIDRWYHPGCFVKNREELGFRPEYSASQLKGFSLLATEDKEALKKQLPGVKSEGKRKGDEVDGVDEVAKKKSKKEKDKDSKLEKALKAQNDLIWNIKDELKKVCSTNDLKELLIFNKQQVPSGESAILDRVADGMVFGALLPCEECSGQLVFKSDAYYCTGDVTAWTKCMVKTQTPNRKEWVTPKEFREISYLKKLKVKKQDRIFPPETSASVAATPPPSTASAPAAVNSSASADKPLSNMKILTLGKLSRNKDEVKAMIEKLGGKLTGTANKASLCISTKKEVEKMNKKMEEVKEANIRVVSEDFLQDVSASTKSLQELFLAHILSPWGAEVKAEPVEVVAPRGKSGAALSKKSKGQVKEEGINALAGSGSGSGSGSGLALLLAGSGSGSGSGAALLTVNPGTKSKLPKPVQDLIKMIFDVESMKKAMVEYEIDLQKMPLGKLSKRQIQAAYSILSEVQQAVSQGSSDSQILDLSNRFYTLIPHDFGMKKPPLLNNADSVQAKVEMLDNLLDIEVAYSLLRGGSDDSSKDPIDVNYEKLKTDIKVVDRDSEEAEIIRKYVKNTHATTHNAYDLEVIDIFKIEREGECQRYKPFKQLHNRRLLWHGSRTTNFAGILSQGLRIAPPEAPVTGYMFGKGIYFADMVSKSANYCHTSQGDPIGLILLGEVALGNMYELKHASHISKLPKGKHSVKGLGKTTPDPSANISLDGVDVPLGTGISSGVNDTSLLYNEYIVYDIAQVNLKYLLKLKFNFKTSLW

[2] = molecular target: PARP1 WT (human, UniProt P09874 1-1014); assay: stopped-flow fluorescence anisotropy; kinetic Kd; k1 3.1 nM-1 s-1, k-1 <10 s-1; 50 mM Tris-HCl pH 7.5, 50 mM NaCl, 1 mM MgCl2, 0.1 mM EDTA, 0.01% IGEPAL, 20 C
Sequence of PARP1 WT (P09874 whole entry): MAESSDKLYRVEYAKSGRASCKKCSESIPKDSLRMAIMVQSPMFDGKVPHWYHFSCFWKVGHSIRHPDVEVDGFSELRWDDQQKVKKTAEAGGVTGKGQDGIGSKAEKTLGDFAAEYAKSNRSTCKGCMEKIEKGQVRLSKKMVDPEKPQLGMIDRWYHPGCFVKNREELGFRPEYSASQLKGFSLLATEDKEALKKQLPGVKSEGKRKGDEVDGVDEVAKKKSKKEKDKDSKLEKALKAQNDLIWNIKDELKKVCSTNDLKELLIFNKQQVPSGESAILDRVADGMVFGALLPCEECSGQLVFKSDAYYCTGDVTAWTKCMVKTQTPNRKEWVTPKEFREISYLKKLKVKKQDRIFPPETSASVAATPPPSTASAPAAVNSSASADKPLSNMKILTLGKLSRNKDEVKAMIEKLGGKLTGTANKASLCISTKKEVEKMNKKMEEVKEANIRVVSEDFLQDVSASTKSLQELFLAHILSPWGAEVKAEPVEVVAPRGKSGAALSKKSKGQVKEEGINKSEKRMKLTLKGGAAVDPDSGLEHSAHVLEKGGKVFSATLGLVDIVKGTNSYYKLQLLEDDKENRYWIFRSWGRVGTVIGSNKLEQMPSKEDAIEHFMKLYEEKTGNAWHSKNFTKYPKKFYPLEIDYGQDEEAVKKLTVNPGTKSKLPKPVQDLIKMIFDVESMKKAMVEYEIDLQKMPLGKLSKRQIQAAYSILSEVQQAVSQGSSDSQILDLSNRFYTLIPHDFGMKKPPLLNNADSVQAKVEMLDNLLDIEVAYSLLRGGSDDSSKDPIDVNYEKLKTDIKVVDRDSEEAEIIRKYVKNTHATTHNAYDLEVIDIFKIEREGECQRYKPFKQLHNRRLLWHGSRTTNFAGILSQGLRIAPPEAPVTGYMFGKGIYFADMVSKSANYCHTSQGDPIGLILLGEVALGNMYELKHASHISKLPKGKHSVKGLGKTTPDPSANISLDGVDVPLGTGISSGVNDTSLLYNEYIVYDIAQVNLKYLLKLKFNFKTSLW

[3] = molecular target: PARP1 dZn2 (human, UniProt P09874 1-96+=ALAGSGSGSGSGSGLALLLAGSGSGSGSGAAL+207-1014, internal_change); assay: stopped-flow fluorescence anisotropy; k1 similar to WT; Scheme 3 dissociation; 50 mM Tris-HCl pH 7.5, 50 mM NaCl, 1 mM MgCl2, 0.1 mM EDTA, 0.01% IGEPAL, 20 C
Sequence of PARP1 dZn2 (P09874 other isoform, or with tags, fused parts or gaps): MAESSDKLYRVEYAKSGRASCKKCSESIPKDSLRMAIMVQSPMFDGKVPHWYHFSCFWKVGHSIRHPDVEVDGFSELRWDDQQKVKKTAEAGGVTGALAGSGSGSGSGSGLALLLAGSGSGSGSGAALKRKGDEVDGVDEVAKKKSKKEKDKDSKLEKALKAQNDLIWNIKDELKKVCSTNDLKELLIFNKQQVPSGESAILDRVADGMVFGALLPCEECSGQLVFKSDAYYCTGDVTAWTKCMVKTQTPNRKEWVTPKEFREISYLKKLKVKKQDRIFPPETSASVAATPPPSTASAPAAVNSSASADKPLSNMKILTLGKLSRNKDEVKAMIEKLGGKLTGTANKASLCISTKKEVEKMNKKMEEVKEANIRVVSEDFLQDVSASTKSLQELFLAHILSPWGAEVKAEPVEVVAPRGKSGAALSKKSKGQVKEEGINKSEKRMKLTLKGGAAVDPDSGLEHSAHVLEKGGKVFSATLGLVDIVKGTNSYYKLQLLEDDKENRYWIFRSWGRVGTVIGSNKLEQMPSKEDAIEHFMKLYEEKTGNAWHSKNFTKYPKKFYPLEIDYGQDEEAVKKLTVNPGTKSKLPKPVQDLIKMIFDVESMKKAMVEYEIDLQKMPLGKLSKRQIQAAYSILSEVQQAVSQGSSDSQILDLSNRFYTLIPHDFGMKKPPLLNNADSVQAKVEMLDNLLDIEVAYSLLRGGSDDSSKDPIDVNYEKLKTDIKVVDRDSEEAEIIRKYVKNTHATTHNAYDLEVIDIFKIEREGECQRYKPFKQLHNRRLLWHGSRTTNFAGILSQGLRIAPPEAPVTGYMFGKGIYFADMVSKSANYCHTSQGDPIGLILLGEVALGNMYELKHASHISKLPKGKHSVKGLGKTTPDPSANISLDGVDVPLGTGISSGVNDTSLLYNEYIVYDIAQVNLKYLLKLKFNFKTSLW

[4] = molecular target: PARP1 dZn3 (human, UniProt P09874 1-215+=ALAGSGSGSGSGSGLALLLAGSGSGSGSGAAL+367-1014, internal_change); assay: as above
Sequence of PARP1 dZn3 (P09874 other isoform, or with tags, fused parts or gaps): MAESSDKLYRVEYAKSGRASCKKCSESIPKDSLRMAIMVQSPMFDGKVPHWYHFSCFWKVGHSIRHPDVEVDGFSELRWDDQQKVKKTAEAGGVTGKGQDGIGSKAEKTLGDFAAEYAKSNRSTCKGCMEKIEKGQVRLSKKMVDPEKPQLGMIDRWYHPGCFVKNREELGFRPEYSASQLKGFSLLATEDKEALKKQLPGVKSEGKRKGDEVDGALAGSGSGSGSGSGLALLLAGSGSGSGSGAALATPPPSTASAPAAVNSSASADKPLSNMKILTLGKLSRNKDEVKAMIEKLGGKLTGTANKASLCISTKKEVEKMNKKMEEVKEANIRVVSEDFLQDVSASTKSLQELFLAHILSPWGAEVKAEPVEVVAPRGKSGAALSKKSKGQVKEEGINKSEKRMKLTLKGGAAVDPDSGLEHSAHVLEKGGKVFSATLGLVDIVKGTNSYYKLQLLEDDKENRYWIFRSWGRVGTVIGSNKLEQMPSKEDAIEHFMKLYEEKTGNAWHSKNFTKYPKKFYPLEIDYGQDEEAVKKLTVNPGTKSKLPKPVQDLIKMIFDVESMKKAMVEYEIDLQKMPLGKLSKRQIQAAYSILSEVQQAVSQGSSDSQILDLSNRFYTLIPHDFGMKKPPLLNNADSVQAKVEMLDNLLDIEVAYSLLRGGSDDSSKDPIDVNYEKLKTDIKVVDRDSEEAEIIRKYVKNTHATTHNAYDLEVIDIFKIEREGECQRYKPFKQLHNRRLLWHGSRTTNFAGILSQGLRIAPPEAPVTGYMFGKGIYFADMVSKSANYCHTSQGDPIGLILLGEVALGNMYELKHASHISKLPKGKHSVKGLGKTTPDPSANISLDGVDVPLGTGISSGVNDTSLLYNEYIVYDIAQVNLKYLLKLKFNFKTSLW

[5] = molecular target: PARP1 dZn1 (human, UniProt P09874 97-1014, del2-96); assay: as above
Sequence of PARP1 dZn1 (P09874 97-1014, stated change not applied): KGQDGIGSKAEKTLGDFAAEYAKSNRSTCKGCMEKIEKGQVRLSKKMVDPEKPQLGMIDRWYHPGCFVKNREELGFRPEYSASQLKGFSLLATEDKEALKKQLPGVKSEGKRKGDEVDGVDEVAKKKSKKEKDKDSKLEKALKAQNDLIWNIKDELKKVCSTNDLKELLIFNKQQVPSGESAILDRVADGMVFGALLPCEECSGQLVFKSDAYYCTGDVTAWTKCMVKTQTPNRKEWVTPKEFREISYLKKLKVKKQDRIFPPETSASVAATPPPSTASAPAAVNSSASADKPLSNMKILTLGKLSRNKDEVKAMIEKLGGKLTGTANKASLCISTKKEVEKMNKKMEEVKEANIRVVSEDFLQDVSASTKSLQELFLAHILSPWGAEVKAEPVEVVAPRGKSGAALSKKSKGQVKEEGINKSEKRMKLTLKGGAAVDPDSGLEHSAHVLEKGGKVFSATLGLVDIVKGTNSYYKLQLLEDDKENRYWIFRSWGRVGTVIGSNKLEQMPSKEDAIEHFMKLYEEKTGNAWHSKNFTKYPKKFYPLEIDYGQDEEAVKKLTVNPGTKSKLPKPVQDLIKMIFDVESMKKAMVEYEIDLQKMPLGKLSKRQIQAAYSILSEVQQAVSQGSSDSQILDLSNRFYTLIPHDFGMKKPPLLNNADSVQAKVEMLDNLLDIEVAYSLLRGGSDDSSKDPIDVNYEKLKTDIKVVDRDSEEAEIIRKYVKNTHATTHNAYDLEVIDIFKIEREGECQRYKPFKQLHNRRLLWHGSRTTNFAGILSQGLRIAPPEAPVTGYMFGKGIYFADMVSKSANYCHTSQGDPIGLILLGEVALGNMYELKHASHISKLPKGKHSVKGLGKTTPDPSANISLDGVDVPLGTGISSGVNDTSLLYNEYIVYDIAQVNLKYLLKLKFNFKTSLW

B1: p18mer* (labeled DSB model) (dsDNA)
DNA 1: GGGTTGCGGCCGCTTGGG
DNA 2: CCCAAGCGGCCGCAACCC
modifications: 5'-phosphate
Does B1 bind [1]?
Result: binds

What about the Kd [2] of the same binder?
Its Kd is less than 3 nM.

Does B1 bind [3]?
Result: binds

Does B1 bind [4]?
Result: binds

Does B1 bind [5]?
Result: binds
